From US20170107294A1, “ANTI-CD14 ANTIBODIES AND USES THEREOF” (Nordlandssykehuset HF, priority 2014, published 2017)

Legend:
[1] = tested on: human whole blood; assay: Unwanted effects (complement activation, oxidative burst) in nonstimulated human whole blood; type: cell-based; conditions: 10 mg/ml Ab; for complement activation: not shown
Experimental: (§1) The whole blood model has been described in detail previously (36). Fresh human venous or porcine arterial blood was drawn directly into tubes containing the anticoagulant lepirudin (Pharmion) at a final concentration of 50 mg/ml. In 1.8-ml Cryo Tube vials (Nunc, Roskilde, Denmark), the blood was preincubated with up to 20 mg/ml anti-human CD14 (r18D11 or 18D11), or 50 mg/ml anti-porcine CD14 (rMil2 or Mil2) at 37° C. for 10 min prior to an additional 2-h incubation in the presence of 100 ng/ml ultrapure LPS from Escherichia coli 0111:B4 (InvivoGen, San Diego, Calif.) for human blood or 1 3 105/ml heat-inactivated E. coli (strain LE392, ATCC33572) for porcine blood. As negative controls, PBS with MgCl2 and CaCl2 (Sigma-Aldrich) and isotype controls were used. Adverse effects were tested using nonactivated whole blood samples. After the addition of 10 mM (human) or 20 mM (porcine) EDTA, plasma was gained by 15 min centrifugation at 3220 3 g and 4° C. Levels of TNF, IL-6, and IL-1b in human plasma were determined using Bioplex technology (Bio-Rad Laboratories AB). Levels of TNF, IL-1b, and IL-8 in porcine plasma were determined using ELISA (Quantikine, R&D Systems, Minneapolis, Minn.). Platelet count was quantified by impedance using a CELL-DYN Sapphire hematology analyzer (Abbott Laboratories, Abbott Park, Ill.).

[2] = tested on: human whole blood; assay: Whole blood ex vivo model of inflammation, LPS-induced cytokine release in human blood; type: cell-based; parameters: Ab concentration at which maximum inhibitory effects were reached: unit not given here
Experimental: as §1

B1: F(ab)92 fragment of 18D11: F(ab)92 fragment of the murine anti-human CD14 clone 18D11 (Diatec) (antibody, V domains shown)
VH: EVQLVESGGGLMQPKGSLKLSCAASGFTFKTYALNWVRQAPGTGLEWVARIRSKSNNYTTYYADSVKDRFTISRDDSQNMLYLQMNNLKTEDTAMYYCVRPQSGTSFAYWGQGTLVTVSAA
VL: NIVLTQSPASLAVSLGQRATISCRASESVDSYGNSFMHWYQQKPGQPPKLLIYLASNLESGVPARFSGSGSRTDFTLTIDPVEADDVATYYCQQNNGDPYTFGGGTKLEIIR
complement activation [1]: did not

B2: 18D11: mouse anti-human CD14 IgG1 clone 18D11 (Diatec), original murine clone (antibody, V domains shown)
VH: EVQLVESGGGLMQPKGSLKLSCAASGFTFKTYALNWVRQAPGTGLEWVARIRSKSNNYTTYYADSVKDRFTISRDDSQNMLYLQMNNLKTEDTAMYYCVRPQSGTSFAYWGQGTLVTVSAA
VL: NIVLTQSPASLAVSLGQRATISCRASESVDSYGNSFMHWYQQKPGQPPKLLIYLASNLESGVPARFSGSGSRTDFTLTIDPVEADDVATYYCQQNNGDPYTFGGGTKLEIIR
E. coli ultrapure LPS-induced release of IL-1b, TNF and IL-6 ([2]; 100 ng/ml LPS, dose-dependent): inhibited
Ab concentration at which maximum inhibitory effects were reached ([2]; LPS-induced IL-1b, TNF, IL-6 release): 10
monocyte oxidative burst ([1]; flow cytometry): significantly induced
complement activation [1]: same low level of complement activation
